Here are results for one molecule from patent publication US6548641 (MAX PLANCK GESELLSCHAFT ZUR FORDERUNG DER WISSENSCHAFTEN E V, dated 2003).

This assay has as its target T1, epidermal growth factor receptor (EGF-R) (UniProt P00533 25-1210).
T1 construct: also called EGF receptor
As to the kind of experiment: co-immunoprecipitation with mAb 108.1 from 293 transfectants, immunoblot with anti-PTP antisera. The method, then: To standardize the experimental parameters, three chimeric RPTKs having EGF-R extracellular domains were tested (HER1-2, EK-R, EP-R) (Seedorf, K. et al., *J. Biol Chem.* 266:12424 (1991)), as was EGF-R itself (FIG. 8).
The precipitates were extensively washed, boiled in SDS sample buffer, and analyzed by 7.5% SDS-PAGE.
(A western blot detects proteins with antibodies after separation by electrophoresis.)

B1: PTP 1C protein tyrosine phosphatase (mouse) (enzyme)
chain: not shown
notes: Overexpressed transiently in human 293 cells
In the case of B1, the binding result was “no binding”.
